Source: paper PMC12867984, “Functional assessment of protein variants in structured domains by fluorescence cross-correlation spectroscopy” (Scientific Reports, 2026)
Numbering of substitutions follows the chain as printed. Names and notes keep the numbering of the source.

Assays:
Settings in all cases: partners not purified
[1] = biological target: T1, mCherry-RBBP8 (UniProt Q99708 1-897); assay: fluorescence cross-correlation spectroscopy (FCCS); GFP- and mCherry-tagged proteins co-expressed in live HeLa cells; focal volume in the nucleoplasm (MSH2-MSH6 also in the cytoplasm); room temperature; cross-correlation/autocorrelation ratio
T1 construct: also called mCherry-RBBP8/CtIP; CtIP; source: HeLa, transfected, in live cells and in lysate
T1 sequence (Q99708 whole entry): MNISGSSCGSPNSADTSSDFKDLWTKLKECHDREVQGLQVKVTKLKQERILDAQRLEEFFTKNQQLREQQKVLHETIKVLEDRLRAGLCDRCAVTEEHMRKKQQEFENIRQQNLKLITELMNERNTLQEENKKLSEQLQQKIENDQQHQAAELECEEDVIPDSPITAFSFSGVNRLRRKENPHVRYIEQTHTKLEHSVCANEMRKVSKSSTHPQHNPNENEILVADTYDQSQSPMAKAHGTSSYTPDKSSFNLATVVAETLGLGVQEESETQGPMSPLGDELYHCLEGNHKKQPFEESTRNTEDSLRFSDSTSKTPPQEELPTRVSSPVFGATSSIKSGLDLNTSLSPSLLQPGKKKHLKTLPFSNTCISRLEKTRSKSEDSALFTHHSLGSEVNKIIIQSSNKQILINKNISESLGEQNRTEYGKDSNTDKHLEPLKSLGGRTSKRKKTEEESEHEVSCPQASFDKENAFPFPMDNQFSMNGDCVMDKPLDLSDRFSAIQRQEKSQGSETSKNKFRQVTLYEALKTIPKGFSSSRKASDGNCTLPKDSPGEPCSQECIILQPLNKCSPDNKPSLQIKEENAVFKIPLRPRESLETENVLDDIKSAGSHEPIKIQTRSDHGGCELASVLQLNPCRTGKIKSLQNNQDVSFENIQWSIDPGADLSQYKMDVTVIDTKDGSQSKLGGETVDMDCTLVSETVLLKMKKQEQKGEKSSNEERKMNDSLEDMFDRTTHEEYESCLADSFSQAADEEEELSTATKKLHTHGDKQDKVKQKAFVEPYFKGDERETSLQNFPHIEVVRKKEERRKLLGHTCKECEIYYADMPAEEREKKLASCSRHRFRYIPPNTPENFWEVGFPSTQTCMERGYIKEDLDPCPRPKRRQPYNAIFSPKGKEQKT

[2] = biological target: T1, mCherry-RBBP8; assay: fluorescence cross-correlation spectroscopy (FCCS); lysate of co-transfected HeLa cells; 20 mM Tris-HCl pH 7.5, 140 mM KCl, 1.5 mM MgCl2, 1 mM DTT, 0.5% NP-40; lysed at room temperature; cross-correlation/autocorrelation ratio
[3] = biological target: T2, mCherry-BARD1 (UniProt Q99728 1-777); assay: as above
T2 construct: also called BRCA1 Associated RING Domain 1; source: HeLa, transfected, in live cells and in lysate
T2 sequence (looked up): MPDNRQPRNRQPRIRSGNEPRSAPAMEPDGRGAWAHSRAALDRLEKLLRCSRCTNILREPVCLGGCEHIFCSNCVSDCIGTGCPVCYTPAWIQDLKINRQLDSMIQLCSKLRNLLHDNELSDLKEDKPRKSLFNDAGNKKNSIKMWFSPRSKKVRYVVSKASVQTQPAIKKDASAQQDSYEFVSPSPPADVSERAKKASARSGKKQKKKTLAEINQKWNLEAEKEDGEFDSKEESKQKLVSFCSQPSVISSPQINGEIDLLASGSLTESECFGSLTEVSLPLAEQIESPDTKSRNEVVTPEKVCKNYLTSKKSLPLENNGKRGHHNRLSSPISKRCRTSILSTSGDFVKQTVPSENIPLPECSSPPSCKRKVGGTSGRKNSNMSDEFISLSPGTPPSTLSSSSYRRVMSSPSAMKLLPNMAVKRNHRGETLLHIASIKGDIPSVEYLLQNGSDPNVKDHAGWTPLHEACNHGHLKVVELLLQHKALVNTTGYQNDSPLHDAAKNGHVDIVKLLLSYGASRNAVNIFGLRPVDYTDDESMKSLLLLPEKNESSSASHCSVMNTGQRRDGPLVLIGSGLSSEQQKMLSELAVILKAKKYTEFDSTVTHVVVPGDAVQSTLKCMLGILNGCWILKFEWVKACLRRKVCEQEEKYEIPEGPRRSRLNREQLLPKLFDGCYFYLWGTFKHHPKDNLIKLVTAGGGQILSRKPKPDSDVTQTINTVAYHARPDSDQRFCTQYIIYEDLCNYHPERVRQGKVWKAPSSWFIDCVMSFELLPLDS

[4] = biological target: T3, mCherry-JUND (UniProt P17535 1-347); assay: as above
T3 construct: JUND; the construct is not described in the methods; also called JunD Proto-Oncogene; source: HeLa, transfected, in lysate
T3 sequence (looked up): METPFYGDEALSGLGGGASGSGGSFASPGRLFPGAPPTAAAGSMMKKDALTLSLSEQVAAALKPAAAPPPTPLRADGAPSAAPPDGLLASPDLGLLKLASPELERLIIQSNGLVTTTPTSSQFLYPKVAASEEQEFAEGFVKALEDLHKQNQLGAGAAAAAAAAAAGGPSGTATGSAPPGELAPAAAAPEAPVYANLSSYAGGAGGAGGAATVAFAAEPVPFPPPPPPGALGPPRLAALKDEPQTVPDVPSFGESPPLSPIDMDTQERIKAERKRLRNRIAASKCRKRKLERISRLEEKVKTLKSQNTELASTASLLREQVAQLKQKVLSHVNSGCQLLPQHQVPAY

B1: GFP-BRCA1 p.Thr1684Ala (natural protein, UniProt P38398 1-1863, looked up)
chain: MDLSALRVEEVQNVINAMQKILECPICLELIKEPVSTKCDHIFCKFCMLKLLNQKKGPSQCPLCKNDITKRSLQESTRFSQLVEELLKIICAFQLDTGLEYANSYNFAKKENNSPEHLKDEVSIIQSMGYRNRAKRLLQSEPENPSLQETSLSVQLSNLGTVRTLRTKQRIQPQKTSVYIELGSDSSEDTVNKATYCSVGDQELLQITPQGTRDEISLDSAKKAACEFSETDVTNTEHHQPSNNDLNTTEKRAAERHPEKYQGSSVSNLHVEPCGTNTHASSLQHENSSLLLTKDRMNVEKAEFCNKSKQPGLARSQHNRWAGSKETCNDRRTPSTEKKVDLNADPLCERKEWNKQKLPCSENPRDTEDVPWITLNSSIQKVNEWFSRSDELLGSDDSHDGESESNAKVADVLDVLNEVDEYSGSSEKIDLLASDPHEALICKSERVHSKSVESNIEDKIFGKTYRKKASLPNLSHVTENLIIGAFVTEPQIIQERPLTNKLKRKRRPTSGLHPEDFIKKADLAVQKTPEMINQGTNQTEQNGQVMNITNSGHENKTKGDSIQNEKNPNPIESLEKESAFKTKAEPISSSISNMELELNIHNSKAPKKNRLRRKSSTRHIHALELVVSRNLSPPNCTELQIDSCSSSEEIKKKKYNQMPVRHSRNLQLMEGKEPATGAKKSNKPNEQTSKRHDSDTFPELKLTNAPGSFTKCSNTSELKEFVNPSLPREEKEEKLETVKVSNNAEDPKDLMLSGERVLQTERSVESSSISLVPGTDYGTQESISLLEVSTLGKAKTEPNKCVSQCAAFENPKGLIHGCSKDNRNDTEGFKYPLGHEVNHSRETSIEMEESELDAQYLQNTFKVSKRQSFAPFSNPGNAEEECATFSAHSGSLKKQSPKVTFECEQKEENQGKNESNIKPVQTVNITAGFPVVGQKDKPVDNAKCSIKGGSRFCLSSQFRGNETGLITPNKHGLLQNPYRIPPLFPIKSFVKTKCKKNLLEENFEEHSMSPEREMGNENIPSTVSTISRNNIRENVFKEASSSNINEVGSSTNEVGSSINEIGSSDENIQAELGRNRGPKLNAMLRLGVLQPEVYKQSLPGSNCKHPEIKKQEYEEVVQTVNTDFSPYLISDNLEQPMGSSHASQVCSETPDDLLDDGEIKEDTSFAENDIKESSAVFSKSVQKGELSRSPSPFTHTHLAQGYRRGAKKLESSEENLSSEDEELPCFQHLLFGKVNNIPSQSTRHSTVATECLSKNTEENLLSLKNSLNDCSNQVILAKASQEHHLSEETKCSASLFSSQCSELEDLTANTNTQDPFLIGSSKQMRHQSESQGVGLSDKELVSDDEERGTGLEENNQEEQSMDSNLGEAASGCESETSVSEDCSGLSSQSDILTTQQRDTMQHNLIKLQQEMAELEAVLEQHGSQPSNSYPSIISDSSALEDLRNPEQSTSEKAVLTSQKSSEYPISQNPEGLSADKFEVSADSSTSKNKEPGVERSSPSKCPSLDDRWYMHSCSGSLQNRNYPSQEELIKVVDVEEQQLEESGPHDLTETSYLPRQDLEGTPYLESGISLFSDDPESDPSEDRAPESARVGNIPSSTSALKVPQLKVAESAQSPAAAHTTDTAGYNAMEESVSREKPELTASTERVNKRMSMVVSGLTPEEFMLVYKFARKHHITLTNLITEEATHVVMKTDAEFVCERTLKYFLGIAGGKWVVSYFWVTQSIKERKMLNEHDFEVRGDVVNGRNHQGPKRARESQDRKIFRGLEICCYGPFTNMPTDQLEWMVQLCGASVVKELSSFTLGTGVHPIVVVQPDAWTEDNGFHAIGQMCEAPVVTREWVLDSVALYQCQELDTYLIPQIPHSHY
notes: also called T1684A; source: HeLa, transfected, in live cells
- reduction in binding relative to wild type [1]: ~50%

B2: GFP-BRCT (isolated BRCA1 BRCT domain, wild-type) (domain or fragment, UniProt P38398 1650-1863, looked up)
chain: MSMVVSGLTPEEFMLVYKFARKHHITLTNLITEETTHVVMKTDAEFVCERTLKYFLGIAGGKWVVSYFWVTQSIKERKMLNEHDFEVRGDVVNGRNHQGPKRARESQDRKIFRGLEICCYGPFTNMPTDQLEWMVQLCGASVVKELSSFTLGTGVHPIVVVQPDAWTEDNGFHAIGQMCEAPVVTREWVLDSVALYQCQELDTYLIPQIPHSHY
notes: BRCA1 amino acids 1650-1864 cloned into pEGFP-C1; the printed limit 1864 may count the stop codon; also called EGFP-tagged BRCT trimmed domain; source: HeLa, transfected, in lysate
- cross-correlation [2]: 17%

B3: GFP-RING (isolated BRCA1 RING domain, wild-type) (domain or fragment, UniProt P38398 1-109, looked up)
chain: MDLSALRVEEVQNVINAMQKILECPICLELIKEPVSTKCDHIFCKFCMLKLLNQKKGPSQCPLCKNDITKRSLQESTRFSQLVEELLKIICAFQLDTGLEYANSYNFAK
notes: BRCA1 amino acids 1-109 cloned into pEGFP-C1; also called EGFP-tagged RING trimmed domain; wild-type RING; source: HeLa, transfected, in lysate
- cross-correlation [3]: 25%

B4: GFP-RING-T37K (domain or fragment, UniProt P38398 1-109, looked up)
chain: B3 chain with T37K
notes: BRCA1 amino acids 1-109 with the variant; source: HeLa, transfected, in lysate
- reduction in binding relative to wild type [3]: 20%

B5: GFP-RING D67Y (domain or fragment, UniProt P38398 1-109, looked up)
chain: B3 chain with D67Y
notes: BRCA1 amino acids 1-109 with the variant; also called D67Y variant (isolated RING domain); source: HeLa, transfected, in lysate
- reduction in binding relative to wild type [3]: 22%

B6: GFP-RING-T37R (domain or fragment, UniProt P38398 1-109, looked up)
chain: B3 chain with T37R
notes: BRCA1 amino acids 1-109 with the variant; also called p.Thr37Arg; source: HeLa, transfected, in lysate
- reduction in binding relative to wild type [3]: 30%

B7: GFP-Menin (natural protein, UniProt O00255 1-610, looked up)
chain: MGLKAAQKTLFPLRSIDDVVRLFAAELGREEPDLVLLSLVLGFVEHFLAVNRVIPTNVPELTFQPSPAPDPPGGLTYFPVADLSIIAALYARFTAQIRGAVDLSLYPREGGVSSRELVKKVSDVIWNSLSRSYFKDRAHIQSLFSFITGTKLDSSGVAFAVVGACQALGLRDVHLALSEDHAWVVFGPNGEQTAEVTWHGKGNEDRRGQTVNAGVAERSWLYLKGSYMRCDRKMEVAFMVCAINPSIDLHTDSLELLQLQQKLLWLLYDLGHLERYPMALGNLADLEELEPTPGRPDPLTLYHKGIASAKTYYRDEHIYPYMYLAGYHCRNRNVREALQAWADTATVIQDYNYCREDEEIYKEFFEVANDVIPNLLKEAASLLEAGEERPGEQSQGTQSQGSALQDPECFAHLLRFYDGICKWEEGSPTPVLHVGWATFLVQSLGRFEGQVRQKVRIVSREAEAAEAEEPWGEEAREGRRRGPRRESKPEEPPPPKKPALDKGLGTGQGAVSGPPRKPPGTVAGTARGPEGGSTAQVPAPTASPPPEGPVLTFQSEKMKGMKELLVATKINSSAIKLQLTAQSQVQMKKQKVSTPSDYTLSFLKRQRKGL
notes: Menin (MEN1); the construct and its isoform are not described in the methods; also called MEN1 factor Menin; source: HeLa, transfected, in lysate
- cross-correlation [4]: 21%

B8: GFP-Menin A242V (natural protein, UniProt O00255 1-610, looked up)
chain: B7 chain with A242V
notes: Menin (MEN1) with the variant; construct and isoform not described; source: HeLa, transfected, in lysate
- binding relative to wild type [4]: ~50%

B9: GFP-Menin A237V (natural protein, UniProt O00255 1-610, looked up)
chain: B7 chain with A237V
notes: as for B8
- binding relative to wild type [4]: ~50%
